Results taken from publication PMC5010500 (Journal of molecular biology, 2016).

How the values were obtained:
[1] = biological target: T1, human Keap1 Kelch domain (residues 322-624) (human, UniProt Q14145 322-624); assay: ITC
[…] = biological target: the molecule itself; assay: […]
full length human Keap1 = full length human Keap1 (human, UniProt Q14145 1-624); assay: […]
[2] = biological target: T1, human Keap1 Kelch domain (residues …); assay: native MS

T1 sequence (Q14145 322-624): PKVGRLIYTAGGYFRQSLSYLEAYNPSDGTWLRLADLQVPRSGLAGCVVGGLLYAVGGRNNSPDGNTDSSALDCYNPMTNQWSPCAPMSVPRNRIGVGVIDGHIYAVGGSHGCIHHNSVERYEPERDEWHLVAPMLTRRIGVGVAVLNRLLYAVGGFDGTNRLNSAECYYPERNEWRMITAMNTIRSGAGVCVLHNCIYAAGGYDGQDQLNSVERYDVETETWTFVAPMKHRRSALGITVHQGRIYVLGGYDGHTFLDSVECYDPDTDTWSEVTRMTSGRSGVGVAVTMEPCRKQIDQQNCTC
Chain of full length human Keap1 (Q14145 whole entry, the tested form may be a part): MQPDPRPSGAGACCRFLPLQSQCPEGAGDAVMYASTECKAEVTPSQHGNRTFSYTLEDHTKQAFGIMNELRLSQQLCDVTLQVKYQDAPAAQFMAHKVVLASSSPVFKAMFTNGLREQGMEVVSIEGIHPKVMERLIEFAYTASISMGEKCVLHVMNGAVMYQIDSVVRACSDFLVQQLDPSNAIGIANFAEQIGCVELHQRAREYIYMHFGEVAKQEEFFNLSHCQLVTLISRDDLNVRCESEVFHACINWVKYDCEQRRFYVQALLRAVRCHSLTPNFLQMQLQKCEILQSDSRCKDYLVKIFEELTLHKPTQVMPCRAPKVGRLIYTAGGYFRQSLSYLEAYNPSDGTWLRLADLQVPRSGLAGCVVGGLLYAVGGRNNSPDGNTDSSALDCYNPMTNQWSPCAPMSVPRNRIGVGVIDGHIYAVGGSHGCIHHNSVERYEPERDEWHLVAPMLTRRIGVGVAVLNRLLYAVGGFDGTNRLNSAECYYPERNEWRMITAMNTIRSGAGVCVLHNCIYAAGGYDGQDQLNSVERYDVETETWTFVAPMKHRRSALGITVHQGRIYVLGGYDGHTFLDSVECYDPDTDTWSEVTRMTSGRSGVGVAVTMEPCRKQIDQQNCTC

Binder | Kd [1] [nM] | stoichiometry N ([…]) | stoichiometry N (full length human Keap1) | stoichiometry N [2]
MBP-tagged mVP24 N-terminal truncation (residues 22-253) (domain or fragment) DLNSTARWIKEPSVGGWTVKWGNFVFHIPNTGMTLLHHLKSNFVVPEWQQTRNLFSHLFKNPKSTIIEPFLALRILLGVALKDQELQQSLIPGFRSIVHMLSEWLLLEVTSAIHISPNLLGIYLTSDMFKILMAGVKNFFNKMFTLHVVNDHGKPSSIEIKLTGQQIIITRVNMGFLVEVRRIDIEPCCGETVLSESVVFGLVAEAVLREHSQMEKGQPLNLTQYMNSKIAI | 77 ± 4 | – | – | –
MBP-tagged Marburg virus viral protein 24, wild type, full length (natural protein) MAELSTRYNLPANVTENSINLDLNSTARWIKEPSVGGWTVKWGNFVFHIPNTGMTLLHHLKSNFVVPEWQQTRNLFSHLFKNPKSTIIEPFLALRILLGVALKDQELQQSLIPGFRSIVHMLSEWLLLEVTSAIHISPNLLGIYLTSDMFKILMAGVKNFFNKMFTLHVVNDHGKPSSIEIKLTGQQIIITRVNMGFLVEVRRIDIEPCCGETVLSESVVFGLVAEAVLREHSQMEKGQPLNLTQYMNSKIAI | – | 2 | 1 mVP24 per Keap1 (2:2) | 1
